The target of experiment [1] is T1, human TrkA ECD (human).
T1 chain: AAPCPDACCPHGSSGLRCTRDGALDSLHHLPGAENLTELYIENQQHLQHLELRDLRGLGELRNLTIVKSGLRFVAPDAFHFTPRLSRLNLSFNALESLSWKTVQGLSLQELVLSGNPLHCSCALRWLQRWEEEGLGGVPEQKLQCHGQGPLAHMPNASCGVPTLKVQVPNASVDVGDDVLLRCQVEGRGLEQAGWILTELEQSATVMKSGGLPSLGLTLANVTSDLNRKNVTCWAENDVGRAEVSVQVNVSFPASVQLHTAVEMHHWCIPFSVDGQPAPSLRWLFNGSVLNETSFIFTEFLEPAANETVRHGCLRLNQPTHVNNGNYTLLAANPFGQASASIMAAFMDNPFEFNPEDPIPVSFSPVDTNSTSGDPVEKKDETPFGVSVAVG
Nature of the experiment: BLI. On the technique in general: BLI is a label-free optical method that tracks binding on a fibre tip over time.

The next experiment concerns the target TrkA (cell surface) (human). The experiment is described as follows: FACS. Background: A flow cytometer gives signals particle by particle.
Experiment [2] has as its target T1, human TrkA ECD. The experiment is described as follows: BLI.

Residue numbers refer to the chain shown, from its start. Where two headings read alike, the source gives them in different places.

TrkA (cell surface) (human), sequence (B2R6T5 whole entry, the tested form may be a part): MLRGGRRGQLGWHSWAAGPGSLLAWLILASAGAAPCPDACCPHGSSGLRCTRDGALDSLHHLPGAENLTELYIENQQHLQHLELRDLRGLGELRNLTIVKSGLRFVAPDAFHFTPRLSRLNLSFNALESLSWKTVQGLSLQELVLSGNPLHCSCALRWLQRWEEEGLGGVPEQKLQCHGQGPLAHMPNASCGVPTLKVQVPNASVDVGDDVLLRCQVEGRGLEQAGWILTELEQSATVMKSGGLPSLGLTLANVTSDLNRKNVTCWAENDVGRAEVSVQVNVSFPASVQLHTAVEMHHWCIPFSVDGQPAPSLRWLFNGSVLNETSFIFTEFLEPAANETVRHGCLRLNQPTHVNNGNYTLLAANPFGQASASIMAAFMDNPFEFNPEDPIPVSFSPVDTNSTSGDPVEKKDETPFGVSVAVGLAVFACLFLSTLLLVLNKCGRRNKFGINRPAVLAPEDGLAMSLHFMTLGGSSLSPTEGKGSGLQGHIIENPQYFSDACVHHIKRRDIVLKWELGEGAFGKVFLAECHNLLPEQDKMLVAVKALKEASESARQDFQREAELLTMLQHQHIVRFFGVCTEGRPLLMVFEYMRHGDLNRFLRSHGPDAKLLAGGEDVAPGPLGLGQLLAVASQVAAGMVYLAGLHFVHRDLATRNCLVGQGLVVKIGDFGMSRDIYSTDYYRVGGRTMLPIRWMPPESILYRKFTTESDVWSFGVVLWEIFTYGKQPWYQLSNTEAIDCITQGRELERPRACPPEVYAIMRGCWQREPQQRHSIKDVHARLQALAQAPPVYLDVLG

B1: Hu70D3A6-V12 (antibody, V domains shown)
VH: EVQLVESGGGLVKPGGSLRLSCAASGFTFTYYAMSWVRQAPGKGLEWVSSISGGGDVYYADSVKGRFTISRDNAKNTLYLQMNSLRAEDTAVYYCARGVGGNYFDYWGQGTLVTVSS
VL: DIQMTQSPSSLSASVGDRVTITCSASSSVSYMYWYQQKPGKAPKPLIYRTSNLASGVPSRFSGSGSGTDFTLTISSLQPEDFATYYCQLYHSYTPITFGQGTKLEIK
Usually Kd stands for the free concentration of one partner at which half of the binding sites on the other are occupied at equilibrium, for simple one-to-one binding. Usually EC50 stands for the concentration needed to bring the measured effect to its halfway point. The low end stands for greater potency, the high end for weaker potency. B1 yielded a dissociation constant Kd in the experiment with human TrkA ECD [1] of 0.591 nM. Besides, the EC50 with TrkA (cell surface) was ~0.289 nM.

B2: Hu99H4D5-V6 (antibody, V domains shown)
VH: B1 VH with T30S, M34I
VL: B1 VL with L89Q
On to B2, for which, in the experiment with human TrkA ECD [1], the affinity, expressed as Kd, was 0.753 nM. For the same molecule, the EC50 with TrkA (cell surface) is ~0.362 nM.

B3: Chi70D3A6 (antibody, V domains shown)
VH: EVKLVESGGDLVKPGGSLKLSCTASGFTFTYYAMSWVRQTPEKRLEWVATISGGGDTYYLDSVKGRFTISRDNAGNILYLQMSSLRSEDTAMYYCARGVGGNFFDYWGQGSTLTVSS
VL: QIVLTQSPAIMSASPGEKVTISCSASSSVSYMYWYQQKPGSSPKPFIYRTSNLASGVPSRFSGSGSGTSYSLTVSTMEAEDAATYYCQLYHSYTPITFGAGTKLELK
Molecule B3 showed a dissociation constant Kd with human TrkA ECD [2] of 0.771 nM.

B4: Chi99H4D5 (antibody, V domains shown)
VH: B3 VH with D10G, T23A, T30S, M34I, V37L, T50S, G54N, G75R, F103Y, S111T
VL: B3 VL with Q1D, L4M, F46L, S59A, V74I, L89Q, E105D
In the experiment with human TrkA ECD [2], B4 came in with a dissociation constant Kd of 1.3 nM. This Kd is about 1.7-fold higher than that of the molecule before.

The record behind these values is patent publication US20260365740 (published 2026).
